Data on 38 variants can be found in the RNAGym collection of RNA variant scans (doi:10.7554/elife.80360).

First the molecules themselves.
B1: Hairpin Ribozyme (parent)
chain: GUCCUCUUUCACGUGCGCGUGAAAGAGAGAAGUGAACCAGAGAAACACACGUUGUGGUAUAUUACCUGGUA

This data set covers variants of B1. The experiment in a line: self-cleavage, relative activity (ratio to wild type); higher = more cleavage; co-transcriptional.
As to GUCCUCUUUCACGUGCGCGUGAAAGAGAGAAGUGAACCAGAGAAACACACGUUCUGGUAUAUUACUUGGUA [G54C C66U], the self-cleavage was found to be 0.254.
With GUCCUCUUUCACGUGCGCGUGAAAGAGAGAAGUGAACCAGAGAAACACACGUGGUGGUAUAUUACCUGUUA [U53G G69U], the self-cleavage is 0.279.
Regarding GUCCUCUUUCACGUGCGCGUGAAAGAGAGAAGUGAACCAGAGAAACACACGUUUUGGUAUAUUAACUGGUA [G54U C65A], the self-cleavage was 0.561.
With GUCCUCUUUCACGUGCGCGUGAAAGAGAGAAGUGAACCAGAGAAACACACGUUUUGGUAUAUUAGCUGGUA [G54U C65G], the self-cleavage was found to be 0.145.
Regarding GUCCUCUUUCACGUGCGCGUGAAAGAGAGAAGUGAACCAGAGAAACACACGUGGUGGUAUAUGACCUGGUA [U53G U63G], the self-cleavage is 0.156.
Next, GUCCUCUUUCACGUGCGCGUGAAAGAGAGAAGUGAACCAGAGAAACACACGUUAUGGUAUAUUACCUGUUA [G54A G69U]: 0.143.
GUCCUCUUUCACGUGCGCGUGAAAGAGAGAAGUGAACCAGAGAAACACACGUUAUGGUAUAUUACCUGCUA [G54A G69C]: the self-cleavage was 0.177.
As for GUCCUCUUUCACGUGCGCGUGAAAGAGAGAAGUGAACCAGAGAAACACACGUUUUGGUAUAUUACCUGGUC [G54U A71C], the self-cleavage stood at 1.1.
For GUCCUCUUUCACGUGCGCGUGAAAGAGAGAAGUGAACCAGAGAAACACACGUUUUGGUAUAUUACUUGGUA [G54U C66U], the self-cleavage is 0.211.
Turning to GUCCUCUUUCACGUGCGCGUGAAAGAGAGAAGUGAACCAGAGAAACACACGUUUUGGUAUAUUACAUGGUA [G54U C66A], the self-cleavage stood at 0.228.
Take GUCCUCUUUCACGUGCGCGUGAAAGAGAGAAGUGAACCAGAGAAACACACGUGGUGGUAUACUACCUGGUA [U53G U62C]: the self-cleavage was found to be 0.281.
For GUCCUCUUUCACGUGCGCGUGAAAGAGAGAAGUGAACCAGAGAAACACACGUUCUGGUAUAUGACCUGGUA [G54C U63G], the self-cleavage is 0.119.
GUCCUCUUUCACGUGCGCGUGAAAGAGAGAAGUGAACCAGAGAAACACACGUUAUGGUAUAUCACCUGGUA [G54A U63C]: the self-cleavage was 0.216.
For the variant GUCCUCUUUCACGUGCGCGUGAAAGAGAGAAGUGAACCAGAGAAACACACGUUCUGGUAUCUUACCUGGUA [G54C A61C], the self-cleavage came to 0.183.
Consider GUCCUCUUUCACGUGCGCGUGAAAGAGAGAAGUGAACCAGAGAAACACACGUGGUGGUAUCUUACCUGGUA [U53G A61C], for which the self-cleavage came out at 0.0932.
Regarding GUCCUCUUUCACGUGCGCGUGAAAGAGAGAAGUGAACCAGAGAAACACACGUGGUGGUAUGUUACCUGGUA [U53G A61G], the self-cleavage amounted to 0.313.
Consider GUCCUCUUUCACGUGCGCGUGAAAGAGAGAAGUGAACCAGAGAAACACACGUUCAGGUAUAUUACCUGGUA [G54C U55A], for which the self-cleavage was 0.196.
Take GUCCUCUUUCACGUGCGCGUGAAAGAGAGAAGUGAACCAGAGAAACACACGUUAUGGUAUUUUACCUGGUA [G54A A61U]: the self-cleavage is 0.254.
For GUCCUCUUUCACGUGCGCGUGAAAGAGAGAAGUGAACCAGAGAAACACACGUCGUGUUAUAUUACCUGGUA [U53C G57U], the self-cleavage came to 0.234.
As to GUCCUCUUUCACGUGCGCGUGAAAGAGAGAAGUGAACCAGAGAAACACACGUGGUGGAAUAUUACCUGGUA [U53G U58A], the self-cleavage is 0.394.
Regarding GUCCUCUUUCACGUGCGCGUGAAAGAGAGAAGUGAACCAGAGAAACACACGUGGUGGUAUAUUUCCUGGUA [U53G A64U], the self-cleavage was determined as 0.144.
For GUCCUCUUUCACGUGCGCGUGAAAGAGAGAAGUGAACCAGAGAAACACACGUUCUGGUAUAUUAACUGGUA [G54C C65A], the self-cleavage is 0.194.
As for GUCCUCUUUCACGUGCGCGUGAAAGAGAGAAGUGAACCAGAGAAACACACGUUUUGGUAUGUUACCUGGUA [G54U A61G], the self-cleavage is 0.139.
With GUCCUCUUUCACGUGCGCGUGAAAGAGAGAAGUGAACCAGAGAAACACACGUUUUGGUAUUUUACCUGGUA [G54U A61U], the self-cleavage was found to be 0.268.
Consider GUCCUCUUUCACGUGCGCGUGAAAGAGAGAAGUGAACCAGAGAAACACACGUGGUUGUAUAUUACCUGGUA [U53G G56U], for which the self-cleavage stood at 0.223.
Consider GUCCUCUUUCACGUGCGCGUGAAAGAGAGAAGUGAACCAGAGAAACACACGUGGUAGUAUAUUACCUGGUA [U53G G56A], for which the self-cleavage came to 0.195.
As for GUCCUCUUUCACGUGCGCGUGAAAGAGAGAAGUGAACCAGAGAAACACACGUGGUCGUAUAUUACCUGGUA [U53G G56C], the self-cleavage is 0.125.
In the case of GUCCUCUUUCACGUGCGCGUGAAAGAGAGAAGUGAACCAGAGAAACACACGUUCUGGUAUAUUACCUGGGA [G54C U70G], the self-cleavage was 0.155.
For the variant GUCCUCUUUCACGUGCGCGUGAAAGAGAGAAGUGAACCAGAGAAACACACGUUCUGGUAUAUUACCUGGAA [G54C U70A], the self-cleavage is 0.216.
Turning to GUCCUCUUUCACGUGCGCGUGAAAGAGAGAAGUGAACCAGAGAAACACACGUUUUGGUAUAUUACCUGAUA [G54U G69A], the self-cleavage was found to be 0.122.
With GUCCUCUUUCACGUGCGCGUGAAAGAGAGAAGUGAACCAGAGAAACACACGUUUUGGUAUAUUACCUCGUA [G54U G68C], the self-cleavage is 0.212.
As to GUCCUCUUUCACGUGCGCGUGAAAGAGAGAAGUGAACCAGAGAAACACACGUUUUGGUAUAUUACCUAGUA [G54U G68A], the self-cleavage was 0.22.
As to GUCCUCUUUCACGUGCGCGUGAAAGAGAGAAGUGAACCAGAGAAACACACGUCGUGGCAUAUUACCUGGUA [U53C U58C], the self-cleavage turned out to be 1.26.
Regarding GUCCUCUUUCACGUGCGCGUGAAAGAGAGAAGUGAACCAGAGAAACACACGUUCUGGUAUAUUACCCGGUA [G54C U67C], the self-cleavage was found to be 0.109.
Under GUCCUCUUUCACGUGCGCGUGAAAGAGAGAAGUGAACCAGAGAAACACACGUUCUGGUAUAUUACCUGGUG [G54C A71G] stands 0.438.
Under GUCCUCUUUCACGUGCGCGUGAAAGAGAGAAGUGAACCAGAGAAACACACGUUAUGGUAUAUUACCUUGUA [G54A G68U] stands 0.227.
Next, GUCCUCUUUCACGUGCGCGUGAAAGAGAGAAGUGAACCAGAGAAACACACGUGGUGGUAUAUUACCUGGUU [U53G A71U]: 0.635.
For the variant GUCCUCUUUCACGUGCGCGUGAAAGAGAGAAGUGAACCAGAGAAACACACGUGGUGGUAUAUUACCUGGUC [U53G A71C], the self-cleavage came to 1.29.
